Results as given in paper PMC9468158, “Transmembrane helices mediate the formation of a stable ternary complex of b5R, cyt b5, and SCD1” (Communications Biology, 2022).

T1: full-length b5R, released from the linker-cleaved cyt b5-b5R fusion (mouse, UniProt Q9DCN2 1-301)
T1 construct: surmised: cleavage of the linker ENLYFQ/G leaves a G at the N-terminus; no extra residue after the C-terminus of b5R
T1 sequence (looked up): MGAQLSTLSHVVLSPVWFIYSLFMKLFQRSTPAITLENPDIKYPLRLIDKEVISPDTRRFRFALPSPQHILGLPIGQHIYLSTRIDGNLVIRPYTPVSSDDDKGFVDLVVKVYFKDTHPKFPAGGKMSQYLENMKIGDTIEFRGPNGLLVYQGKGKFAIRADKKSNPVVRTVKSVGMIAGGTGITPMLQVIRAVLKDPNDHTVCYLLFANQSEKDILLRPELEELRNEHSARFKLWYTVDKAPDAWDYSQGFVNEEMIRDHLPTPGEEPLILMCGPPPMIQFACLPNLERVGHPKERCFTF

T2: SCD1, released from the linker-cleaved SCD1-cyt b5 fusions (mouse, UniProt P13516 1-355)
T2 construct: stearoyl-CoA desaturase-1 (SCD1), mouse, UniProt P13516; stands for the SCD1 chain of the fusion with full-length cyt b5 (wild type and TM mutants) and of the fusion with the soluble domain of cyt b5; the GFP tag stood at the C-terminus of the fusion; surmised: ENLYFQ is left at the C-terminus after cleavage
T2 sequence (looked up): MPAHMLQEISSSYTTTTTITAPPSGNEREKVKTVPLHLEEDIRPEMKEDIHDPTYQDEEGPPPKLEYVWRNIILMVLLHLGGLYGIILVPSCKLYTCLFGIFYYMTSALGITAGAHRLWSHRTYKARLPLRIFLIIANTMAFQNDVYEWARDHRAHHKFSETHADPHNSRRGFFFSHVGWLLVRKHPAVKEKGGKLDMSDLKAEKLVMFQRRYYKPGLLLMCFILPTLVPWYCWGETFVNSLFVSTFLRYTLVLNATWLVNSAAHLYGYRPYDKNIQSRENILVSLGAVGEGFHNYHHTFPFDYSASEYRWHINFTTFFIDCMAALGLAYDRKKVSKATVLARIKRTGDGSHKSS

T3: SCD1, released from the linker-cleaved SCD1-cyt b5-b5R fusions (mouse, UniProt P13516 1-355)
T3 construct: stearoyl-CoA desaturase-1 (SCD1), mouse, UniProt P13516; stands for the SCD1 chain of the ternary fusion of the full-length proteins and of the sample with soluble cyt b5 and b5R; surmised: linker residues are left after TEV cleavage; not shown: GFP, N-terminal, cleaved
T3 sequence (looked up): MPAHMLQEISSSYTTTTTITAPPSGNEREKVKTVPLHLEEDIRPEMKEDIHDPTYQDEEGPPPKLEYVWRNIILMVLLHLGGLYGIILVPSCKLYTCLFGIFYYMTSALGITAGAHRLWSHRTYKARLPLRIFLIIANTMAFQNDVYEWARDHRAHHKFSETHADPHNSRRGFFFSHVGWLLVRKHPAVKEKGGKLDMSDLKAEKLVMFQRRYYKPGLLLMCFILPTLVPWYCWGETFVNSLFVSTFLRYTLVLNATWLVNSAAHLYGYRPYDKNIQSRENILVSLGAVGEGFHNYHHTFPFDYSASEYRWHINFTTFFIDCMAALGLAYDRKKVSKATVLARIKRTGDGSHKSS

T4: soluble b5R (24-301) (mouse, UniProt Q9DCN2 24-301)
T4 construct: source: E. coli BL21(DE3) (pET vector), purified (procedures similar to those for the full-length proteins)
T4 sequence (looked up): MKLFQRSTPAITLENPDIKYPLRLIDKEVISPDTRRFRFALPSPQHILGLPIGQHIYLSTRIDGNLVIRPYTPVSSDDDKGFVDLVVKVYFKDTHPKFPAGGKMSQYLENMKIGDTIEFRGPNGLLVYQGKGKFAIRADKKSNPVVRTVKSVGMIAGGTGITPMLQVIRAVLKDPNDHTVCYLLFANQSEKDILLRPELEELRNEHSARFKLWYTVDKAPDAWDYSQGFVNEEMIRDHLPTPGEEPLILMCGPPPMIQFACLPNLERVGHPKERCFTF

T5: SCD1, individual purified protein (mouse, UniProt P13516 1-355)
T5 construct: stearoyl-CoA desaturase-1 (SCD1), mouse, UniProt P13516; surmised: ENLYFQ of the TEV site is left at the C-terminus; source: HEK 293S (BacMam), purified (GFP nanobody resin, released by TEV protease, SEC in 1 mM DDM); not shown: GFP, C-terminal, cleaved
T5 sequence (looked up): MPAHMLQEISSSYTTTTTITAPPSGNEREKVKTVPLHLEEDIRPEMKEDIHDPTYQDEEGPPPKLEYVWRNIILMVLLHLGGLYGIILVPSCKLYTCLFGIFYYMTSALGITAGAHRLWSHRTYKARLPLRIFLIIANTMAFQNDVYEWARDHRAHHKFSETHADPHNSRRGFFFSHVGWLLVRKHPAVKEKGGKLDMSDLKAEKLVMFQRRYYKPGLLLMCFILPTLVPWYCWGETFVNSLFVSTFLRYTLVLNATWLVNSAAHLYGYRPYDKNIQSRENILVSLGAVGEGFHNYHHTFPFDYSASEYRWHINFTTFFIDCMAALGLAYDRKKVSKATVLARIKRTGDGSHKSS


Legend:
Settings in all cases: both partners purified
[1] = molecular target: T1, full-length b5R, released from the …; test: SEC; TM mutants in the linker-cleavable fusions, purified and cleaved by TEV protease; SRE-10C SEC-300 (Sepax) on HPLC, FPLC buffer, 0.75 mL/min; heme absorbance (413 nm by the results, 423 nm by the methods) gives the ratio of heterodimer to monomeric cyt b5
[2] = molecular target: T2, SCD1, released from the linker-cleaved …; test: as above
[3] = molecular target: T3, SCD1, released from the linker-cleaved …; test: SEC; ternary fusion SCD1-cyt b5-b5R purified, linkers cleaved by TEV protease, Superdex 200 10/300 GL in 20 mM HEPES pH 7.5, 150 mM NaCl, 1 mM DDM; three proteins in the sample
soluble b5R (24-301) = molecular target: T4, soluble b5R (24-301); test: BLI; Octet, 30 °C, 1000 rpm; soluble cyt b5 coupled to AR2G (amine reactive) biosensors; analytes soluble b5R or SCD1 at 5, 2.5 and 1.25 µM; FPLC buffer (20 mM HEPES pH 7.5, 150 mM NaCl, 1 mM DDM) plus 0.1% BSA; KD from kon and koff of 1-exponential fits
[4] = molecular target: T5, SCD1, individual purified protein; test: as above

Binder	percent dissociation of the complex [2] [%]	Kd (soluble b5R (24-301)) [µM]	Kd [4] [µM]	also measured
cyt b5 M126A, released from the linker-cleaved cyt b5-b5R-TEV chimera (natural protein, mouse, UniProt P56395 1-134, looked up, cytochrome b5, mouse, UniProt P56395; as m6 with the mutation; source: High Five cells (Bac-to-Bac), purified as a fusion with b5R, cleaved by TEV protease) MAGQSDKDVKYYTLEEIQKHKDSKSTWVILHHKVYDLTKFLEEHPGGEEVLREQAGGDATENFEDVGHSTDARELSKTYIIGELHPDDRSKIAKPSDTLITTVESNSSWWTNWVIPAISALAVALAYRLYMAED				binding result [1]: binds
cyt b5 L121W, released from the linker-cleaved cyt b5-b5R-TEV chimera (natural protein, mouse, UniProt P56395 1-134, looked up, cytochrome b5, mouse, UniProt P56395; as m6 with the mutation; source: High Five cells (Bac-to-Bac), purified as a fusion with b5R, cleaved by TEV protease) MAGQSDKDVKYYTLEEIQKHKDSKSTWVILHHKVYDLTKFLEEHPGGEEVLREQAGGDATENFEDVGHSTDARELSKTYIIGELHPDDRSKIAKPSDTLITTVESNSSWWTNWVIPAISAWAVALMYRLYMAED				binding result [1]: binds
cyt b5 L121W, released from the linker-cleaved SCD1-cyt b5-TEV chimera (natural protein, mouse, UniProt P56395 1-134, looked up, cytochrome b5, mouse, UniProt P56395; as m11 with the mutation; source: HEK 293S (BacMam), purified as a fusion with SCD1, cleaved by TEV protease; not shown: GFP, C-terminal, cleaved) MAGQSDKDVKYYTLEEIQKHKDSKSTWVILHHKVYDLTKFLEEHPGGEEVLREQAGGDATENFEDVGHSTDARELSKTYIIGELHPDDRSKIAKPSDTLITTVESNSSWWTNWVIPAISAWAVALMYRLYMAED	~40			
full-length b5R, released from the linker-cleaved SCD1-cyt b5-b5R fusion (enzyme, mouse, UniProt Q9DCN2 1-301, looked up, no extra residue after the C-terminus of b5R; surmised: a G is left at the N-terminus after TEV cleavage) MGAQLSTLSHVVLSPVWFIYSLFMKLFQRSTPAITLENPDIKYPLRLIDKEVISPDTRRFRFALPSPQHILGLPIGQHIYLSTRIDGNLVIRPYTPVSSDDDKGFVDLVVKVYFKDTHPKFPAGGKMSQYLENMKIGDTIEFRGPNGLLVYQGKGKFAIRADKKSNPVVRTVKSVGMIAGGTGITPMLQVIRAVLKDPNDHTVCYLLFANQSEKDILLRPELEELRNEHSARFKLWYTVDKAPDAWDYSQGFVNEEMIRDHLPTPGEEPLILMCGPPPMIQFACLPNLERVGHPKERCFTF				binding result [3]: binds

The next lines start with results.

percent dissociation of the complex [2] [%]	Kd (soluble b5R (24-301)) [µM]	Kd [4] [µM]	Binder	also measured
~50			cyt b5 M126A, released from the linker-cleaved SCD1-cyt b5-TEV chimera (natural protein, mouse, UniProt P56395 1-134, looked up, cytochrome b5, mouse, UniProt P56395; as m11 with the mutation; source: HEK 293S (BacMam), purified as a fusion with SCD1, cleaved by TEV protease; not shown: GFP, C-terminal, cleaved) MAGQSDKDVKYYTLEEIQKHKDSKSTWVILHHKVYDLTKFLEEHPGGEEVLREQAGGDATENFEDVGHSTDARELSKTYIIGELHPDDRSKIAKPSDTLITTVESNSSWWTNWVIPAISALAVALAYRLYMAED	
~10			cyt b5 R128A, released from the linker-cleaved SCD1-cyt b5-TEV chimera (natural protein, mouse, UniProt P56395 1-134, looked up, cytochrome b5, mouse, UniProt P56395; as m11 with the mutation; source: HEK 293S (BacMam), purified as a fusion with SCD1, cleaved by TEV protease; not shown: GFP, C-terminal, cleaved) MAGQSDKDVKYYTLEEIQKHKDSKSTWVILHHKVYDLTKFLEEHPGGEEVLREQAGGDATENFEDVGHSTDARELSKTYIIGELHPDDRSKIAKPSDTLITTVESNSSWWTNWVIPAISALAVALMYALYMAED	
~10			cyt b5 Y127A, released from the linker-cleaved SCD1-cyt b5-TEV chimera (natural protein, mouse, UniProt P56395 1-134, looked up, cytochrome b5, mouse, UniProt P56395; as m11 with the mutation; source: HEK 293S (BacMam), purified as a fusion with SCD1, cleaved by TEV protease; not shown: GFP, C-terminal, cleaved) MAGQSDKDVKYYTLEEIQKHKDSKSTWVILHHKVYDLTKFLEEHPGGEEVLREQAGGDATENFEDVGHSTDARELSKTYIIGELHPDDRSKIAKPSDTLITTVESNSSWWTNWVIPAISALAVALMARLYMAED	
	2.71	4.42	soluble cyt b5 (4-89), wild type (domain or fragment, mouse, UniProt P56395 4-89, looked up, cytochrome b5, mouse, UniProt P56395, soluble domain, residues 4-89; coupled by amines to AR2G biosensors; also called cyt b5 (WT); source: E. coli BL21(DE3) (pET vector), purified (procedures similar to those for the full-length proteins)) QSDKDVKYYTLEEIQKHKDSKSTWVILHHKVYDLTKFLEEHPGGEEVLREQAGGDATENFEDVGHSTDARELSKTYIIGELHPDDR	
	8.45	8.23	soluble cyt b5 (4-89) E49A (domain or fragment, mouse, UniProt P56395 4-89, looked up, cytochrome b5, mouse, UniProt P56395, soluble domain, residues 4-89; coupled by amines to AR2G biosensors; also called cyt b5 (E49A); source: E. coli BL21(DE3) (pET vector), purified (procedures similar to those for the full-length proteins)) QSDKDVKYYTLEEIQKHKDSKSTWVILHHKVYDLTKFLEEHPGGEAVLREQAGGDATENFEDVGHSTDARELSKTYIIGELHPDDR	
	9.63	11.2	soluble cyt b5 (4-89) E43A (domain or fragment, mouse, UniProt P56395 4-89, looked up, cytochrome b5, mouse, UniProt P56395, soluble domain, residues 4-89; coupled by amines to AR2G biosensors; also called cyt b5 (E43A); source: E. coli BL21(DE3) (pET vector), purified (procedures similar to those for the full-length proteins)) QSDKDVKYYTLEEIQKHKDSKSTWVILHHKVYDLTKFLEAHPGGEEVLREQAGGDATENFEDVGHSTDARELSKTYIIGELHPDDR	
